# Results: patent US20250018014A1, “METHOD FOR TREATING AND/OR PREVENTING REGNASE-1-RELATED DISEASE” (OSAKA UNIVERSITY, priority 2018, published 2025)
# Positions of bridges follow the written chain, without caps; N, C: chain ends. Non-standard residues stand in square brackets, D forms with d. *: point of attachment. Pyrrolidide = C1CCN(*)C1; dNMeA = CN[C@H](C)C(=O)O
# T1: C-terminal human Regnase-1 (amino acids 301 to 599) with N-terminal FLAG tag and C-terminal BirA recognition … (human, UniProt Q5D1E8 301-599)
# T1 sequence: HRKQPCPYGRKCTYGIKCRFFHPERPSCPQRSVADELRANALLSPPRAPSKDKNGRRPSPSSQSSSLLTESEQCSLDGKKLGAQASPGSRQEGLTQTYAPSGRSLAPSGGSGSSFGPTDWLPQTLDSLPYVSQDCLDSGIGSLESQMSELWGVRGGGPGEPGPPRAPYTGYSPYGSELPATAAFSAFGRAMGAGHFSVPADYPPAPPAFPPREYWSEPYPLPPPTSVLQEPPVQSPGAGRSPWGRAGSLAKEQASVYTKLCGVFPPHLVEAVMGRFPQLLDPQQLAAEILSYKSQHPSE
# T2: C-terminal domain-deleted human Regnase-1 (amino acids 1 to 546) with N-terminal FLAG tag and C-terminal BirA … (human, UniProt Q5D1E8 1-546)
# T2 sequence: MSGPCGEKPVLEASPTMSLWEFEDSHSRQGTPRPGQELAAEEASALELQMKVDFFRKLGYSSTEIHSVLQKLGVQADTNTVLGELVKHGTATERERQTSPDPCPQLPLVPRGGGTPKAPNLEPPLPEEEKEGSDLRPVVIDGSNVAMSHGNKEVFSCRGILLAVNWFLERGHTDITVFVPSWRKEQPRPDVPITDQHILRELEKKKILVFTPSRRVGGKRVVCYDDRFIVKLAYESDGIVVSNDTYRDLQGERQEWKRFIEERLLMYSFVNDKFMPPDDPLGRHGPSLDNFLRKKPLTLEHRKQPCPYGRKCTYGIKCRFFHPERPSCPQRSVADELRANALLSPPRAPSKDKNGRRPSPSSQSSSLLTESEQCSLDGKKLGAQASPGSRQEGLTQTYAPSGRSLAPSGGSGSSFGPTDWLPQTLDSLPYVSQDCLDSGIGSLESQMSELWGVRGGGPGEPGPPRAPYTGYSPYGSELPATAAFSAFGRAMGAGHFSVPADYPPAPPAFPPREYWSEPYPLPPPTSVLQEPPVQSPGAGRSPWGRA
# T3: full-length human Regnase-1 with a FLAG tag on the N-terminal side and a biotin ligase BirA recognition … (human, UniProt Q5D1E8 1-599, biotinylated at the BirA recognition sequence when required)
# T3 sequence: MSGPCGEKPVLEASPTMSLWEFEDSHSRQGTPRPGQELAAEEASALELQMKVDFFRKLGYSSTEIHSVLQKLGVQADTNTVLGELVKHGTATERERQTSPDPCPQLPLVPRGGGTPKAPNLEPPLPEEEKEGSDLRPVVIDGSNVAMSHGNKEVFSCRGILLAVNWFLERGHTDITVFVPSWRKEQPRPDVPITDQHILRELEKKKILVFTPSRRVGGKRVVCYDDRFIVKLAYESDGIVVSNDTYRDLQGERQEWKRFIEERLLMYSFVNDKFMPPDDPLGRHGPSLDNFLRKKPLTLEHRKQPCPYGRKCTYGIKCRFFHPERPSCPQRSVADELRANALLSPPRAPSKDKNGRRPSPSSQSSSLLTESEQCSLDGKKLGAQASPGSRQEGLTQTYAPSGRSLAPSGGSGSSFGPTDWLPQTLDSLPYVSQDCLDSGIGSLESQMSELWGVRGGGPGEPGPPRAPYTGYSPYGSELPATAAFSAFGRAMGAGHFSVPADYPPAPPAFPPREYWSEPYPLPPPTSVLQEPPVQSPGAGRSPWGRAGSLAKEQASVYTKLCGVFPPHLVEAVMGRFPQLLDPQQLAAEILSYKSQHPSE
# B1: PP20 (peptide)
# peptide: XKFWIHHSFED
# HELM: PEPTIDE1{[meA].K.F.W.I.H.H.S.F.E.D.[C1CCN([*:1])C1]}$PEPTIDE1,PEPTIDE1,1:R1-11:R3$$$V2.0
# SMILES: CC[C@H](C)[C@@H]1NC(=O)[C@H](Cc2c[nH]c3ccccc23)NC(=O)[C@H](Cc2ccccc2)NC(=O)[C@H](CCCCN)NC(=O)[C@H](C)N(C)C(=O)C[C@@H](C(=O)N2CCCC2)NC(=O)[C@H](CCC(=O)O)NC(=O)[C@H](Cc2ccccc2)NC(=O)[C@H](CO)NC(=O)[C@H](Cc2c[nH]cn2)NC(=O)[C@H](Cc2c[nH]cn2)NC1=O
# B2: PP21 (peptide)
# peptide: XNSWYKIWGLD
# HELM: PEPTIDE1{[meA].N.S.W.Y.K.I.W.G.L.D.[C1CCN([*:1])C1]}$PEPTIDE1,PEPTIDE1,1:R1-11:R3$$$V2.0
# SMILES: CC[C@H](C)[C@@H]1NC(=O)[C@H](CCCCN)NC(=O)[C@H](Cc2ccc(O)cc2)NC(=O)[C@H](Cc2c[nH]c3ccccc23)NC(=O)[C@H](CO)NC(=O)[C@H](CC(N)=O)NC(=O)[C@H](C)N(C)C(=O)C[C@@H](C(=O)N2CCCC2)NC(=O)[C@H](CC(C)C)NC(=O)CNC(=O)[C@H](Cc2c[nH]c3ccccc23)NC1=O
# B3: PP22 (peptide)
# peptide: XNSWYRIWGLD
# HELM: PEPTIDE1{[meA].N.S.W.Y.R.I.W.G.L.D.[C1CCN([*:1])C1]}$PEPTIDE1,PEPTIDE1,1:R1-11:R3$$$V2.0
# SMILES: CC[C@H](C)[C@@H]1NC(=O)[C@H](CCCNC(=N)N)NC(=O)[C@H](Cc2ccc(O)cc2)NC(=O)[C@H](Cc2c[nH]c3ccccc23)NC(=O)[C@H](CO)NC(=O)[C@H](CC(N)=O)NC(=O)[C@H](C)N(C)C(=O)C[C@@H](C(=O)N2CCCC2)NC(=O)[C@H](CC(C)C)NC(=O)CNC(=O)[C@H](Cc2c[nH]c3ccccc23)NC1=O
# B4: PP17 (peptide)
# peptide: XDIWFDYWDWD
# HELM: PEPTIDE1{[meA].D.I.W.F.D.Y.W.D.W.D.[C1CCN([*:1])C1]}$PEPTIDE1,PEPTIDE1,1:R1-11:R3$$$V2.0
# SMILES: CC[C@H](C)[C@@H]1NC(=O)[C@H](CC(=O)O)NC(=O)[C@H](C)N(C)C(=O)C[C@@H](C(=O)N2CCCC2)NC(=O)[C@H](Cc2c[nH]c3ccccc23)NC(=O)[C@H](CC(=O)O)NC(=O)[C@H](Cc2c[nH]c3ccccc23)NC(=O)[C@H](Cc2ccc(O)cc2)NC(=O)[C@H](CC(=O)O)NC(=O)[C@H](Cc2ccccc2)NC(=O)[C@H](Cc2c[nH]c3ccccc23)NC1=O
# B5: PP18 (peptide)
# peptide: XDIWFDYWDYD
# HELM: PEPTIDE1{[meA].D.I.W.F.D.Y.W.D.Y.D.[C1CCN([*:1])C1]}$PEPTIDE1,PEPTIDE1,1:R1-11:R3$$$V2.0
# SMILES: CC[C@H](C)[C@@H]1NC(=O)[C@H](CC(=O)O)NC(=O)[C@H](C)N(C)C(=O)C[C@@H](C(=O)N2CCCC2)NC(=O)[C@H](Cc2ccc(O)cc2)NC(=O)[C@H](CC(=O)O)NC(=O)[C@H](Cc2c[nH]c3ccccc23)NC(=O)[C@H](Cc2ccc(O)cc2)NC(=O)[C@H](CC(=O)O)NC(=O)[C@H](Cc2ccccc2)NC(=O)[C@H](Cc2c[nH]c3ccccc23)NC1=O
# B6: PP19 (peptide)
# peptide: XVFYKIWYNWD
# HELM: PEPTIDE1{[meA].V.F.Y.K.I.W.Y.N.W.D.[C1CCN([*:1])C1]}$PEPTIDE1,PEPTIDE1,1:R1-11:R3$$$V2.0
# SMILES: CC[C@H](C)[C@@H]1NC(=O)[C@H](CCCCN)NC(=O)[C@H](Cc2ccc(O)cc2)NC(=O)[C@H](Cc2ccccc2)NC(=O)[C@H](C(C)C)NC(=O)[C@H](C)N(C)C(=O)C[C@@H](C(=O)N2CCCC2)NC(=O)[C@H](Cc2c[nH]c3ccccc23)NC(=O)[C@H](CC(N)=O)NC(=O)[C@H](Cc2ccc(O)cc2)NC(=O)[C@H](Cc2c[nH]c3ccccc23)NC1=O
# Target: T1, C-terminal human Regnase-1 (amino acids …)
# Experiment: cell-based or functional assay
row,Binder,"50% inhibition concentration, Regnase-1 phosphorylation by IKKβ (AlphaScreen) [µM]"
1,B1,> 62.1
2,[dNMeA]PTSSWYKIWD-Pyrrolidide (lactam N-11) [PP23],> 62.1
3,B2,37.2
4,B3,31
5,B4,0.7
6,B5,0.5
7,B6,10.1

# Target: T2, C-terminal domain-deleted human …
# Experiment: cell-based or functional assay
row,Binder,"50% inhibition concentration, Regnase-1 phosphorylation by IKKβ (AlphaScreen) [µM]"
1,B1,> 62.1
2,[dNMeA]PTSSWYKIWD-Pyrrolidide (lactam N-11) [PP23],> 62.1
3,B2,39.3
4,B3,34
5,B4,0.3
6,B5,0.2
7,B6,12.6

# Target: T3, full-length human Regnase-1 with a FLAG …
# Experiment: cell-based or functional assay
row,Binder,"50% inhibition concentration, Regnase-1 phosphorylation by IKKβ (AlphaScreen) [µM]"
1,B1,24.7
2,[dNMeA]PTSSWYKIWD-Pyrrolidide (lactam N-11) [PP23],25.6
3,B2,19.6
4,B3,15
5,B4,0.5
6,B5,0.4
7,B6,5.4

# Target: T1, C-terminal human Regnase-1 (amino acids …)
# Experiment: cell-based or functional assay
# Remark: another data set of the same source
row,Binder,"50% inhibition concentration, Regnase-1 phosphorylation by TBK1 (AlphaScreen) [µM]"
1,B1,> 62.1
2,[dNMeA]PTSSWYKIWD-Pyrrolidide (lactam N-11) [PP23],30.7
3,B2,17
4,B3,25.8
5,B4,< 0.06
6,B5,0.9
7,B6,5.8

# Target: T2, C-terminal domain-deleted human …
# Experiment: cell-based or functional assay
# Remark: another data set of the same source
row,Binder,"50% inhibition concentration, Regnase-1 phosphorylation by TBK1 (AlphaScreen) [µM]"
1,B1,> 62.1
2,[dNMeA]PTSSWYKIWD-Pyrrolidide (lactam N-11) [PP23],29.7
3,B2,11.7
4,B3,22.8
5,B4,0.3
6,B5,1.8
7,B6,4.6

# Target: T3, full-length human Regnase-1 with a FLAG …
# Experiment: cell-based or functional assay
# Remark: another data set of the same source
row,Binder,"50% inhibition concentration, Regnase-1 phosphorylation by TBK1 (AlphaScreen) [µM]"
1,B1,38.5
2,[dNMeA]PTSSWYKIWD-Pyrrolidide (lactam N-11) [PP23],18.8
3,B2,13.5
4,B3,24.3
5,B4,< 0.06
6,B5,0.6
7,B6,3.7
